Measurements published in the Human Domainome abundance scans (Beltran et al. 2025).

B1: CD2-associated protein, residues 109 to 169; numbered along this chain, Q9Y5K6 (parent)
chain: KKRQCKVLFEYIPQNEDELELKVGDIIDINEEVEEGWWSGTLNNKLGLFPSNFVKELEVTD
B2: Dynamin-binding protein, residues 146 to 206; numbered along this chain, Q6XZF7 (parent)
chain: SMGQARALMGLSAQLDEELDFREGDVITIIGVPEPGWFEGELEGRRGIFPEGFVELLGPLR

Variants of: B1
Experiment: abundance fitness (aPCA) (normalised: wild type 0, dead -1); higher = more abundant; growth selection in yeast, the domain comes from the species named
Conditions: Homo sapiens

Abundance fitness: each site, then its substitutions
R3: K -0.33 | M -0.228 | G -0.21 | C -0.38 | F -0.451 | Y -0.58 | A -0.664 | P -0.572 | W -0.372 | V -0.316 | D -0.283 | L -0.178 | N -0.388 | T -0.109 | S -0.364 | Q -0.963 | E -0.401 | I -0.409 | H -0.122
C5: A 0.335 | F -0.367 | R -0.547 | G 0.235 | M -0.419 | P -0.945 | Q -0.024 | E -0.688 | H -1.01 | D -0.626 | I -0.656 | Y -0.097 | S -0.353 | N -0.596 | L -0.445 | W -0.743 | V 0.23 | K -0.632
K1: G -0.122 | Q -0.316 | I -0.241 | D 0.195 | C -0.232 | M -0.184 | R -0.181 | Y -0.172 | T 0.113 | F -0.351 | N 0.265 | V -0.367 | S -0.249
L8: K -0.304 | S -0.082 | W -0.49 | I 0.118 | E -0.088 | T -0.192 | N -0.417 | P -0.596 | G -0.133 | Q -0.437 | A -0.34 | Y -0.288 | M 0.33 | V -0.035 | H -0.401 | R -0.345 | D -0.267
K2: T -0.423 | M 0.011 | F -0.51 | Y -0.183 | R -0.334 | E 0.145 | A -0.197 | G -0.007 | N -0.227 | S -0.754 | P -0.293
E10: G -0.153 | R -0.126 | N -0.064 | D 0.144 | S 0.081 | K -0.215 | Q -0.146 | C -0.266 | L -0.841 | W -0.904 | T -0.265 | A -0.333 | M -0.579
Q4: Y 0.503 | L 0.271 | W -0.117 | V 0.118 | R 0.209 | E -0.539 | S 0.134
Y11: V -0.715 | Q -0.936 | S -0.572 | W -0.318 | L -0.951 | E -0.73 | N -0.344 | F -0.767 | G -0.855 | A -0.539 | M -0.897 | K -0.415 | R 0.072 | H -0.286 | D -0.446 | T -0.458 | P -0.481
I12: F -0.026 | K -0.063 | P -0.159 | A -0.03 | E -0.122 | D -0.303
K6: R 0.122 | C 0.088 | S -0.084 | Y 0.219 | V 0.278 | L 0.255 | P -0.761 | E -0.06 | N -0.472 | Q 0.191 | F -0.042 | M 0.151 | H -0.02 | W -0.119 | I 0.309 | A 0.112
V7: A -0.03 | M -0.884 | F -0.826 | R -0.193 | D -0.748 | P -1.05 | C -0.293 | S -0.399 | T -0.9 | E -0.999 | G -1.24 | Q 0.1 | L -0.542
F9: H 0.145 | E 0.173 | P -0.449 | A 0.026 | L 0.283 | S 0.004 | Q 0.083 | T 0.222 | R 0.18 | I 0.131 | C -0.303 | M 0.244 | G -0.294 | D -0.097 | W -0.108

Variants of: B2
Experiment: as above
Conditions: Homo sapiens

Abundance fitness: each site, then its substitutions
F53: Y 0.059 | E -0.486
